Reference: PMC7618510

Molecular target: T1, HA-Halo-MRAP2 (human), Q96G30
T1 chain: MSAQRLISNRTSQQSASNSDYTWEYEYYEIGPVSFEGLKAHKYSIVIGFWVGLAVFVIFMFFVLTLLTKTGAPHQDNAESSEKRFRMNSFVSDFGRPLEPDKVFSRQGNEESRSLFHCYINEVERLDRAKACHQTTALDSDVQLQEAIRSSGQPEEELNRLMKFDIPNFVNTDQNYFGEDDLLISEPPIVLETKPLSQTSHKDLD
Experiment: single-molecule pull-down (SiMPull) with photobleaching step counting; one colour: HEK293 cells expressing the HA-Halo-tagged protein alone, labelled at the surface with membrane-impermeable CA-Sulfo646, lysed in 0.5% LMNG/0.05% CHS, immobilised by the HA tag on slides with biotinylated HA antibody, single molecules imaged by TIRF
Settings: remark: other sources report otherwise

B1: HA-Halo-MRAP2, Q96G30 1-205 (natural protein)
chain: MSAQRLISNRTSQQSASNSDYTWEYEYYEIGPVSFEGLKAHKYSIVIGFWVGLAVFVIFMFFVLTLLTKTGAPHQDNAESSEKRFRMNSFVSDFGRPLEPDKVFSRQGNEESRSLFHCYINEVERLDRAKACHQTTALDSDVQLQEAIRSSGQPEEELNRLMKFDIPNFVNTDQNYFGEDDLLISEPPIVLETKPLSQTSHKDLD
modifications: here or on the partner: CA-Sulfo646 dye on the Halo tag; CA-Sulfo646 dye on the Halo tag
A percent of molecules with a single bleaching step of 68%, a percent of molecules with three or four bleaching steps of less than 5% and a percent of molecules with two bleaching steps of 28% were found for B1 in this work.
